Patent US20220396632A1 (VERSEAU THERAPEUTICS, published 2022)

How the values were obtained:
[1] = molecular target: T1, Biotin PSGL-1(42-62) P55A peptide (C-terminal Lys-biotin); assay: alanine-scan ELISA, streptavidin-immobilized biotin peptide
T1 peptide: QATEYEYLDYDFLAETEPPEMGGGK

[2] = molecular target: T2, Biotin PSGL-1(42-62) E56A peptide (C-terminal Lys-biotin); assay: as above
T2 peptide: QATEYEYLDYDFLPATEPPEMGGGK

[3] = molecular target: T3, Biotin PSGL-1(42-62) L54A peptide (C-terminal Lys-biotin); assay: as above
T3 peptide: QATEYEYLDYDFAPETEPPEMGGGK

[4] = molecular target: T4, Biotin PSGL-1(42-62) L49A peptide (C-terminal Lys-biotin); assay: as above
T4 peptide: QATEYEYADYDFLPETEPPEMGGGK

[5] = molecular target: T5, Biotin PSGL-1(42-62) F53A peptide (C-terminal Lys-biotin); assay: as above
T5 peptide: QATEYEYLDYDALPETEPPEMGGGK

[6] = molecular target: T6, Biotin PSGL-1(42-62) D50A peptide (C-terminal Lys-biotin); assay: as above
T6 peptide: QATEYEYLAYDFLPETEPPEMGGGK

[7] = molecular target: T7, PSGL-1 endogenously expressed on HL-60 cells (UniProt Q14242 42-412); assay: flow cytometry on HL-60 cells; against parent 19L04
T7 construct: whole, on cells
T7 sequence (looked up): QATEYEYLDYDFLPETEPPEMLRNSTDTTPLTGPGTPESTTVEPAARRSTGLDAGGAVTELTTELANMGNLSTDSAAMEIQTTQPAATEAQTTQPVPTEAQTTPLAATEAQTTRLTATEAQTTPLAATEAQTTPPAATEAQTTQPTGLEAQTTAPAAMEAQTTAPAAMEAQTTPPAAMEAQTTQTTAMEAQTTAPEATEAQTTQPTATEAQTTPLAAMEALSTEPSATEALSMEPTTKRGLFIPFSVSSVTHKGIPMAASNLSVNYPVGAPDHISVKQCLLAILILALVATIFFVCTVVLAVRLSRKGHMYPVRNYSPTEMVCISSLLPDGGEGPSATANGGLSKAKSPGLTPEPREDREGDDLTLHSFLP
Description: A typical flow cytometry assay was performed by resuspending HL-60 cells in FACS buffer (5% FBS and 0.05% Sodium Azide in PBS, pH 7.2) on ice, pelleting cells by centrifugation at 500×g for 3 min, washing cells with FACS buffer, and then blocking Fc receptors on the cells with Fc block (human TruStain FcX™, BioLegend Cat. #422302) on ice for 10 min. After washing, 50,000 cells/50 ul in FACS buffer was added to each well of a 96-well round bottomed plate (Costar, Cat. #3797), and 50 ul of serially diluted (0.06 nM-1.0 uM) test or isotype control antibody was added into duplicate wells. The plate was covered and incubated on ice for 1 h. After washing, Phycoerythrin (PE) conjugated anti-human IgG secondary antibody (Abcam; Cat. #ab99825) was added to each well and the plate incubated in the dark on ice for 30 min. After washing, the cells were fixed (1% paraformaldhyde).

B1: 18F02 (antibody, V domains shown)
VH: QVQLQQPGAELVKPGASVKLSCKASGYTFTSYWMHWVKQRPGQGLEWIGMIHPNSGRTNYNEKFKSKATLTVDKSSSTAYMQLSSLTSEDSAVYYCARSDYWGQGTTLTVSS
VL: DIVMTQAAFSNPVTLGTSASISCRSSKSLLHSDGITYLYWFLQRPGQSPQLLIYRMSNLASGVPDRFSGSGSGTDFTLRISRVEAEDVGVYYCAQMLEFPRTFGGGTKLEIK
notes: From mouse immunisation; only variable domains given
Does B1 bind [1]?
Result: binds

Does B1 bind [2]?
Result: binds

Does B1 bind [3]?
Result: binds

Does B1 bind [4]?
Result: binds

B2: 43B6 (antibody, V domains shown)
VH: EVQLQQSGPDLVKPGALVKISCKASGYSFTAYYIHWVKQSHGKSLEWIGRVNPNTGGTSYNPKFKGKAILNVDKSSSTAYMELRSLTSEDSAVYYCARSGSPYYRYDDWGQGTTLTVSS
VL: ENVLTQSPAIMSASPGEKVTMTCRASSTVNSTYLHWFQQKSGASPKLWIYGSSNLASGVPARFSGSGSGTSYSLTISSVEAEDAATYYCQQYSGYPLTFGAGTTLELK
notes: Control anti-PSGL-1 mAb, recombinant; only variable domains given; also called 43B3
What does the source list for B2?
binding result [5]: binds; binding result [6]: binds

B3: 19L04 (antibody, IgG4, V domains shown)
VH: QIQLVQSGPELKKPGETVKISCKASGYTFTTYGMSWVKQAPGKGLKWMGWINTYSGVPTYADDFKGRFAFSLETSASTAYLQINNLKIEDTATYFCARHYYGSHYFDYWGQGTTLTVSS
VL: DIMMTQSPSSLAMSVGQKVTLRCKSSQSLLNSSNQKNYLAWYQQKPGQSPKLLVYFASTRESGVPVRFIGSGSGTDFTLTISSMQAEDLADYFCQQHYFSPLTFGAGTKLELK
notes: as for B1
With B3 as the binder, how does the “HL-60 EC50 (normalized)” value [7] read?
Its value is 1 fold.
